# Positions count from the first letter of the chain named. Names may count otherwise. Where two headings read alike, the source gives them in different places.
# T1: recombinant human IL4 (human, UniProt P05112 25-153)
# T1 construct: also called Antigen1
# T1 sequence (looked up): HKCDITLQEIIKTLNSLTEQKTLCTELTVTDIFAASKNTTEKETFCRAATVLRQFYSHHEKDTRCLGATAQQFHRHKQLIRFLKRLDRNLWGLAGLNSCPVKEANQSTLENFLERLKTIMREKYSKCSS
# T2: recombinant human IL4 (human, UniProt P05112 25-153)
# T2 construct: bought
# T2 sequence (looked up): T1 sequence (looked up)
# B1: CODV-Ig Batch ID 129 (IL4 × IL13 on LC; L1=1, L2=3, L3=2, L4=4) (bispecific antibody)
# chain 1: not shown
# chain 2: DIQMTQSPASLSVSVGDTITLTCHASQNIDVWLSWFQQKPGNIPKLLIYKASNLHTGVPSRFSGSGSGTGFTLTISSLQPEDIATYYCQQAHSYPFTFGGGTKLEIKGDIVLTQSPASLAVSLGQRATISCRASESVDSYGQSYMHWYQQKAGQPPKLLIYLASNLESGVPARFSGSGSRTDFTLTIDPVQAEDAATYYCQQNAEDSRTFGGGTKLEIKGGGRTVAAPSVFIFPPSDEQLKSGTASVVCLLNNFYPREAKVQWKVDNALQSGNSQESVTEQDSKDSTYSLSSTLTLSKADYEKHKVYACEVTHQGLSSPVTKSFNRGEC
# B2: TBTI/DVD-Ig molecule incorporating anti-IL4 and anti-IL13 sequences (FIG. 7, upper panel) (bispecific antibody)
# heavy: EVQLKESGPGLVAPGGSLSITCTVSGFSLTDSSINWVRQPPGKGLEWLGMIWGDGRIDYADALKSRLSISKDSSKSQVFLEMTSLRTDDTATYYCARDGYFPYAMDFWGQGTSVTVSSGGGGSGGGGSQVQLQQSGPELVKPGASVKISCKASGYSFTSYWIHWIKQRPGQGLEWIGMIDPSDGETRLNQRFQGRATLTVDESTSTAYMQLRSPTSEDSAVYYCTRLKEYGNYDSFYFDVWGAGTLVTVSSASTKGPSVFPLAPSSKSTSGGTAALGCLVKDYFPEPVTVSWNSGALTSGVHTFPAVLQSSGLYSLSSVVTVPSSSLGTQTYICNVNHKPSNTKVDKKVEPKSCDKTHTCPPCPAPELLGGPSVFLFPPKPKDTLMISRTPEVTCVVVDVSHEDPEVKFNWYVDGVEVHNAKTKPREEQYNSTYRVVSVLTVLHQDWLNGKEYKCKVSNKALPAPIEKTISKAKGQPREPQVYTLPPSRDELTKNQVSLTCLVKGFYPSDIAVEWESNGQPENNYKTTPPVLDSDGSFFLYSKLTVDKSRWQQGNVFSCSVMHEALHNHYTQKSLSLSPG
# light: DIVLTQSPASLAVSLGQRATISCRASESVDSYGQSYMHWYQQKAGQPPKLLIYLASNLESGVPARFSGSGSRTDFTLTIDPVQAEDAATYYCQQNAEDSRTFGGGTKLEIKGGGGSGGGGSDIQMTQSPASLSVSVGDTITLTCHASQNIDVWLSWFQQKPGNIPKLLIYKASNLHTGVPSRFSGSGSGTGFTLTISSLQPEDIATYYCQQAHSYPFTFGGGTKLEIKRTVAAPSVFIFPPSDEQLKSGTASVVCLLNNFYPREAKVQWKVDNALQSGNSQESVTEQDSKDSTYSLSSTLTLSKADYEKHKVYACEVTHQGLSSPVTKSFNRGEC
# notes: also called TBTI/DVD-Ig format
# B3: CODV-Ig Batch ID 508 (IL4 × IL13 on HC; L1 HIDSPNK, L2 QRIEG, L3 V, L4 SL) (bispecific antibody)
# heavy: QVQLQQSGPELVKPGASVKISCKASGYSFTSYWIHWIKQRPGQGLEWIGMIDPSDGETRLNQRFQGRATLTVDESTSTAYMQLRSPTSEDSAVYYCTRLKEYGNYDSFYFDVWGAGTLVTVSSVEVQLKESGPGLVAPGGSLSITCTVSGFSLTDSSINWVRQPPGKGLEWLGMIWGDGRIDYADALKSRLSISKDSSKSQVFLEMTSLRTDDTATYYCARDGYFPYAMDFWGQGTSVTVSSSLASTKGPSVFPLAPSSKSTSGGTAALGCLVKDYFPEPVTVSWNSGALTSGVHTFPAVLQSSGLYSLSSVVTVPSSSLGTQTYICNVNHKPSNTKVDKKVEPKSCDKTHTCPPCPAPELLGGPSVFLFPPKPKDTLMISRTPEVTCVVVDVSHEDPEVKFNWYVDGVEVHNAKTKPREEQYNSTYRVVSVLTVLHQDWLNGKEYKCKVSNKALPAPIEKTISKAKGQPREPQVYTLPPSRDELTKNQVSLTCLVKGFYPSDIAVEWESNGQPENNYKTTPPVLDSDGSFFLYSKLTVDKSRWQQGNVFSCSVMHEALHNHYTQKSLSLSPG
# light: DIVLTQSPASLAVSLGQRATISCRASESVDSYGQSYMHWYQQKAGQPPKLLIYLASNLESGVPARFSGSGSRTDFTLTIDPVQAEDAATYYCQQNAEDSRTFGGGTKLEIKHIDSPNKDIQMTQSPASLSVSVGDTITLTCHASQNIDVWLSWFQQKPGNIPKLLIYKASNLHTGVPSRFSGSGSGTGFTLTISSLQPEDIATYYCQQAHSYPFTFGGGTKLEIKQRIEGRTVAAPSVFIFPPSDEQLKSGTASVVCLLNNFYPREAKVQWKVDNALQSGNSQESVTEQDSKDSTYSLSSTLTLSKADYEKHKVYACEVTHQGLSSPVTKSFNRGEC
# B4: CODV-Ig Batch ID 602 (Batch ID 204 with S376C & P397C in IGHG1) (bispecific antibody)
# heavy: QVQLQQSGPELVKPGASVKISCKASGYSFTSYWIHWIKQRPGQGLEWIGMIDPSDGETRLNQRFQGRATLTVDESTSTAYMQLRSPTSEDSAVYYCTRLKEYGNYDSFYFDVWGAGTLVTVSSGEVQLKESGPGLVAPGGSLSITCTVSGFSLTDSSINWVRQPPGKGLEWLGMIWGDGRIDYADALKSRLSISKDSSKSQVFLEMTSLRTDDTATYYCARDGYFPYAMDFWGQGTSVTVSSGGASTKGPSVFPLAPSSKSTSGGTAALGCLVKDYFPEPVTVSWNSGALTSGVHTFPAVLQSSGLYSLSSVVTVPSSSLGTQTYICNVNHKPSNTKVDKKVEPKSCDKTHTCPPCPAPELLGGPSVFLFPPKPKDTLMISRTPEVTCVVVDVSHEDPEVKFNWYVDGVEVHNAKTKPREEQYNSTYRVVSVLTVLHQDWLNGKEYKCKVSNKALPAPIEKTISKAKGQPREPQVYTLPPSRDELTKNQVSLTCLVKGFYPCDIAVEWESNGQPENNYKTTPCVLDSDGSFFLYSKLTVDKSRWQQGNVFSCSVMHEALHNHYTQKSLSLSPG
# light: DIVLTQSPASLAVSLGQRATISCRASESVDSYGQSYMHWYQQKAGQPPKLLIYLASNLESGVPARFSGSGSRTDFTLTIDPVQAEDAATYYCQQNAEDSRTFGGGTKLEIKGGGGGGGDIQMTQSPASLSVSVGDTITLTCHASQNIDVWLSWFQQKPGNIPKLLIYKASNLHTGVPSRFSGSGSGTGFTLTISSLQPEDIATYYCQQAHSYPFTFGGGTKLEIKGGGGGRTVAAPSVFIFPPSDEQLKSGTASVVCLLNNFYPREAKVQWKVDNALQSGNSQESVTEQDSKDSTYSLSSTLTLSKADYEKHKVYACEVTHQGLSSPVTKSFNRGEC
# modifications: Engineered cysteine pair in CH3 (intended intradomain disulfide C376-C397, patent's count).
# notes: The mutation numbers are those of the column 'Introduced Mutations IGHG1'
# B5: CODV-Ig Batch ID 603 (Batch ID 204 with P446G447 to G446E447C448 in IGHG1) (bispecific antibody)
# heavy: QVQLQQSGPELVKPGASVKISCKASGYSFTSYWIHWIKQRPGQGLEWIGMIDPSDGETRLNQRFQGRATLTVDESTSTAYMQLRSPTSEDSAVYYCTRLKEYGNYDSFYFDVWGAGTLVTVSSGEVQLKESGPGLVAPGGSLSITCTVSGFSLTDSSINWVRQPPGKGLEWLGMIWGDGRIDYADALKSRLSISKDSSKSQVFLEMTSLRTDDTATYYCARDGYFPYAMDFWGQGTSVTVSSGGASTKGPSVFPLAPSSKSTSGGTAALGCLVKDYFPEPVTVSWNSGALTSGVHTFPAVLQSSGLYSLSSVVTVPSSSLGTQTYICNVNHKPSNTKVDKKVEPKSCDKTHTCPPCPAPELLGGPSVFLFPPKPKDTLMISRTPEVTCVVVDVSHEDPEVKFNWYVDGVEVHNAKTKPREEQYNSTYRVVSVLTVLHQDWLNGKEYKCKVSNKALPAPIEKTISKAKGQPREPQVYTLPPSRDELTKNQVSLTCLVKGFYPSDIAVEWESNGQPENNYKTTPPVLDSDGSFFLYSKLTVDKSRWQQGNVFSCSVMHEALHNHYTQKSLSLSGEC
# light: B4 light
# notes: C-terminal change P446G447 to G446E447C448
# B6: CODV-Ig Batch ID 803 (Batch ID 204 with LC G115C, HC Q43C) (bispecific antibody)
# heavy: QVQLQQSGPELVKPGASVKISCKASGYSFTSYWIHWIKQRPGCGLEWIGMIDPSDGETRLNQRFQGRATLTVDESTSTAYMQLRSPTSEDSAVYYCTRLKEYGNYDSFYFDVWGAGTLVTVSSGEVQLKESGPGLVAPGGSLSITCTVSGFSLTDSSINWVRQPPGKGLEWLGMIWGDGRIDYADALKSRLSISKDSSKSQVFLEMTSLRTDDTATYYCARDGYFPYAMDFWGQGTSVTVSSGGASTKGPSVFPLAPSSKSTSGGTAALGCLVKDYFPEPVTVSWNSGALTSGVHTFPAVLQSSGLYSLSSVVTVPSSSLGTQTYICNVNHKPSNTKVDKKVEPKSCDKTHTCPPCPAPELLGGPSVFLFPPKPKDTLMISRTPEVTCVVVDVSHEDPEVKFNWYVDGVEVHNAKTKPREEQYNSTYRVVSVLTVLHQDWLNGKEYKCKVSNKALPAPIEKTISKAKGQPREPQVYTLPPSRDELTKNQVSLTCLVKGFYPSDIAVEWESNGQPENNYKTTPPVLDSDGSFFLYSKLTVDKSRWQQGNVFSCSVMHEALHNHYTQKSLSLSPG
# light: B4 light with G115C
# modifications: Engineered cysteine pair LC C115 (in L1) and HC C43, intended inter-chain disulfide.
# notes: The mutation numbers are read as counts along the whole chain: G115C lies in L1 as printed; Q43C lies in the N-terminal anti-IL4 VH
# B7: CODV-Ig Batch ID 802 (Batch ID 204 with LC G114C, HC Q43C) (bispecific antibody)
# heavy: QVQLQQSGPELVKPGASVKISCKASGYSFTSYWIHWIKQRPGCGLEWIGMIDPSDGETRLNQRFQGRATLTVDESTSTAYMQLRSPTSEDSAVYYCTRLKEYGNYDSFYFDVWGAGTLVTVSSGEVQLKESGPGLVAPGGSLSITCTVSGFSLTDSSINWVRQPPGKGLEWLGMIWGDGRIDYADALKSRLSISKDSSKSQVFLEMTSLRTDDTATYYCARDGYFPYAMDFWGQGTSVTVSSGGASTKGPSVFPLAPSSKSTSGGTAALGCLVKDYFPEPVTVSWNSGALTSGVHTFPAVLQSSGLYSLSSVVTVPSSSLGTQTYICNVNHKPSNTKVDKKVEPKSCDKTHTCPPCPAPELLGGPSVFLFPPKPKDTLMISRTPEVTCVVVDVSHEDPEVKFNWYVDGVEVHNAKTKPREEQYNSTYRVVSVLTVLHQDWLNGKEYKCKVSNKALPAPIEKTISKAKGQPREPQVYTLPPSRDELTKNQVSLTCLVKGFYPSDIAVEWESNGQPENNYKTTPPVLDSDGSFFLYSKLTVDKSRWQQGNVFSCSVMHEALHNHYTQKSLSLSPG
# light: B4 light with G114C
# modifications: Engineered cysteine pair LC C114 (in L1) and HC C43, intended inter-chain disulfide.
# notes: The mutation numbers are read as counts along the whole chain: G114C lies in L1 as printed; Q43C lies in the N-terminal anti-IL4 VH
# B8: CODV-Ig Batch ID 805 (Batch ID 204 with LC G117C, HC Q43C) (bispecific antibody)
# heavy: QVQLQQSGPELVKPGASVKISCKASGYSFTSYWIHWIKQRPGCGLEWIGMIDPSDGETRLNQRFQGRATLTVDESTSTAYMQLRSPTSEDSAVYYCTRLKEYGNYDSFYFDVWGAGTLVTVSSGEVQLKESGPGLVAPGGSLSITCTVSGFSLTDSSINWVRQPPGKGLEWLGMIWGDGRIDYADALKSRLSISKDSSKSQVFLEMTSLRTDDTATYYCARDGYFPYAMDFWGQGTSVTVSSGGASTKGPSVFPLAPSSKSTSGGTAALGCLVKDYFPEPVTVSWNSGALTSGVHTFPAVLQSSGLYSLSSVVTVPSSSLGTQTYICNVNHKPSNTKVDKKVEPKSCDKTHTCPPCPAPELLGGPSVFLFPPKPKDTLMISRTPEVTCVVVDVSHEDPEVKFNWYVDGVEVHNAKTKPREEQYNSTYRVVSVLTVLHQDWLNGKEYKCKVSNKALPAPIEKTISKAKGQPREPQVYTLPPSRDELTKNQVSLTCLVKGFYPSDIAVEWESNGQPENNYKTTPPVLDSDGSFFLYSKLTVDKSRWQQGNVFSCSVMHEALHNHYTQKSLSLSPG
# light: B4 light with G117C
# notes: The mutation numbers are read as counts along the whole chain: G117C lies in L1 as printed; Q43C lies in the N-terminal anti-IL4 VH
# B9: CODV-Ig Batch ID 804 (Batch ID 204 with LC G116C, HC Q43C) (bispecific antibody)
# heavy: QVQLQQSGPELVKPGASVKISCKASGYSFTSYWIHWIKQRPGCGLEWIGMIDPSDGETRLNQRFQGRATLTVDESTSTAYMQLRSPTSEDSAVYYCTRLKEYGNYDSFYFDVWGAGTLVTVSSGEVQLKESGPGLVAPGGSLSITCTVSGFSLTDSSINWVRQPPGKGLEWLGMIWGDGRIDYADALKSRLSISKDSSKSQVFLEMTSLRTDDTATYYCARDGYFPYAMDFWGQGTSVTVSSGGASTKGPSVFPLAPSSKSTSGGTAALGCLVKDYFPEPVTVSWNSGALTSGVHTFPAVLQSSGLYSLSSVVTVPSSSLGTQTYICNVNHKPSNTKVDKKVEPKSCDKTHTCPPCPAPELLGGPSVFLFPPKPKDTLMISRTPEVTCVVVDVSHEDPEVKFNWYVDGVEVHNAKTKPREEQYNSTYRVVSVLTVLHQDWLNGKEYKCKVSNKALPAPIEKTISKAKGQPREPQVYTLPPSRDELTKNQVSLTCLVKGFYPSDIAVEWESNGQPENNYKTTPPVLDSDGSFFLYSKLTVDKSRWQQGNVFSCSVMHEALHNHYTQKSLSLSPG
# light: B4 light with G116C
# modifications: Engineered cysteine pair LC C116 (in L1) and HC C43, intended inter-chain disulfide.
# notes: The mutation numbers are read as counts along the whole chain: G116C lies in L1 as printed; Q43C lies in the N-terminal anti-IL4 VH
# What was measured:
# [1] = target: T3, recombinant human IL13 (human, UniProt P35225 35-146, limits assumed); test: SPR, Biacore 3000; CODV-Ig captured by anti-human Fc, antigen as analyte
# T3 construct: also called Antigen2
# Protocol: (§1) Kinetic binding analysis by Biacore was performed as follows. Surface plasmon resonance technology on a Biacore 3000 (GE Healthcare) was used for detailed kinetic characterization of purified antibodies. […] Chip surfaces were regenerated with 10 mM glycine pH 2.5. Kinetic parameters were analyzed and calculated in the BIAevaluation program package v4.1 using a flow cell without captured antibody as a reference.
# [2] = target: T1, recombinant human IL4; test: as above
# Protocol: as §1
# [3] = target: T1, recombinant human IL4; test: kinetic table drawn in the figure; assay not named in Example 9, parental rows equal the BIACORE values of Table 6
# [4] = target: T2, recombinant human IL4; test: SPR (Biacore 3000), antibody captured, antigen as analyte
# Protocol: as §1
# [5] = target: T2, recombinant human IL4; test: cell-based or functional assay
# [6] = target: T2, recombinant human IL4; test: cell-based or functional assay; remark: listed apart in the source
# [7] = target: T2, recombinant human IL4; test: SPR (Biacore 3000), antibody captured, antigen as analyte; remark: listed apart in the source
# Protocol: as §1
# [8] = target: T2, recombinant human IL4; test: cell-based or functional assay; remark: listed apart in the source
# [9] = target: T2, recombinant human IL4; test: SPR (Biacore 3000), antibody captured, antigen as analyte; remark: listed apart in the source
# Protocol: as §1
# T3 sequence (P35225 35-146 limits assumed): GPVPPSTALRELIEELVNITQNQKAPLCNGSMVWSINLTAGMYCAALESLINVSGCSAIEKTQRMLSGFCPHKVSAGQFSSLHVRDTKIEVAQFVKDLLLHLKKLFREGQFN
binder,measurement,setting,value
B1,Kd,[1],0.07 nM
same,Kd,[2],0.005 nM
B2,Kd,[3],0.0263 nM
same,koff,[3],0.00015 s⁻¹
same,kon,[3],5.7e+06 M⁻¹ s⁻¹
B3,Kd,[4],0.001 nM
same,"IC50 Cellular Assay IL4 [nM] (HEK-Blue IL-4/IL-13 reporter cells, SEAP)",[5],0.054 nM
B4,"IC50 Cellular Assay IL4 [nM] (HEK-Blue IL-4/IL-13 reporter cells, SEAP)",[6],0.034 nM
same,Kd,[7],0.01 nM
B5,"IC50 Cellular Assay IL4 [nM] (HEK-Blue IL-4/IL-13 reporter cells, SEAP)",[6],0.036 nM
same,Kd,[7],0.004 nM
B6,"IC50 Cellular Assay IL4 [nM] (HEK-Blue IL-4/IL-13 reporter cells, SEAP)",[8],0.036 nM
same,Kd,[9],0.006 nM
B7,"IC50 Cellular Assay IL4 [nM] (HEK-Blue IL-4/IL-13 reporter cells, SEAP)",[8],0.027 nM
same,Kd,[9],0.006 nM
B8,"IC50 Cellular Assay IL4 [nM] (HEK-Blue IL-4/IL-13 reporter cells, SEAP)",[8],0.047 nM
same,Kd,[9],0.007 nM
B9,"IC50 Cellular Assay IL4 [nM] (HEK-Blue IL-4/IL-13 reporter cells, SEAP)",[8],0.04 nM
same,Kd,[9],0.002 nM
